Assay: soluble on expression in E. coli; label from the status in PepcDB or PDB records

Sequence	soluble on expression in E. coli
MPSLSKEAALVHDALVARGLETPLRPPMDELDNETRKSLIAGHMTEIMQLLNLDLSDDSLMETPHRIAKMYVDEIFAGLDYANFPKITLIENKMKVDEMVTVRDITLTSTCEHHFVTIDGKATVAYIPKDSVIGLSKINRIVQFFAQRPQVQERLTQQILTALQTLLGTNNVAVSIDAVHYCVKARGIRDATSATTTTSLGGLFKSSQNTRQEFLRAVRHHP	not soluble
MPSNIRESDASCLEMIRSIIRSTADDNSKWVEIFVDFENAQPTDEEREIYNMAEEVLNDCDLVLADVSSYGNGCYAERNQLKNDSDTQALKVLMTKLEPFVARTCSYYEHVAKIEKIVPIILWELSSGPLPLEEQLANKQSIAKQFARLIGFVLDFDVVKMRTAQITNDYSYYRRAKHIVYQDFEDQGVPELPQVQMFLCEGNPMLKALCNGVDSYMQTHQSLPINNTTDVFVTIINVCRFMLANDECLARLTDSSKHLCCRVMTGLVILFDHVDQNGAFVSNSSIDMRDVVRLIKLNTTPEQSDCLLAGLRFTTKHYNDSSTPKSLRHLIEVK	soluble
MPSRLSLIAALLLPLAVQAEPADTRALLADSLADSQAQVEAAEQAMRRSENKAVQLYAKRVLTEQQEFDHQLRALAGEKALALPSPRQTERQAAAPGGFDERGFLDAQIRQQDRLVARFEGIARDSADPDLRRFADEWLARFYHHRELADQLRSGRAD	not soluble
MPSRQLEDPGAGTPSPVRLHALAGFQQRALCHALTFPSLQRLVYSMCSLCQEENEDMVPDALQQNPGAFRLAPALPARPHRGLSTFPGAEHCLRASPKTTLSGGFFVAVIERVEMPT	not soluble
MPSWREKHEKIVQSKILVIGAGGIGCELLKNLAVTGFRKVHVIDLDTIDISNLNRQFLFRKEHVSSSKAATATQVVKQFCPQIELTFDHDSIFEKKYNMEFFQAYDIVLNALDNRAARNYVNRMCHAANRPLIDSGSGGYFGQVSVIMRGKTECYECVDKPVQQTTYPGCTIRNTPSEHIHCTVWAKHVFNQLFGEVDIDDDVSPDMDAVDPDNTEAVTTEKEKEAMKEEPAPVGTRQWAESVDYDAAKVFDKLFLHDIEYLCKMEHLWKQRKRPSPLEFHTASSTGGEPQSLCDAQRDDTSIWTLSTCAKVFSTCIQELLEQIRAEPDVKLAFDKDHAIIMSFVAACANIRAKIFGIPMKSQFDIKAMAGNIIPAIASTNAIVAGIIVTEAVRVIEGSTVICNSSIATTQSNPRGRVRFYGFFN	not soluble
MPTISRSALVMYSVDQMYQLINDIPAYPKFLPDCNDSKVIDQDEQSVTAALLVSKGGLSKWFTTKNTLISNEKIHLSLVDGPFKKLEGYWLLTPLSDEACKVSLELEYEFSNKLVSLAFGKVFGHFSNSLVQVFTQRAKEIYGVNVLEHHHHHH	soluble
MPTLQAAMFLEKDMQKNTLWFDSLSMQDVDKVGGKNASLGEMVSNLANAGVSVPNGFATTAYAFNQFLDFEGLDERIHQLLDELDVDDVDALRKTGATIRQWILQAPFPAELEQEIRTNYNQLIDGNSELSVAVRSSATAEDLPDASFAGQQETFLNVKGIDAVLEATKHVYASLFNDRAISYRVHQGFDHRGIALSAGIQRMVRSDKAASGVMFTLDTESGFDKVVFITAAWGLGEMVVQGAVNPDEFYVHKPLLEAGYPAIVKKTFGSKLSKMIYANSQVIGKQVEVVDTSAHERNQFSLTDAEIQELAKQALIIEKHYQRPMDIEWAKDGIDGKLYIVQARPETVCSQSEQNVIERYELSHKASVLLEGRAIGQRIGSGTVRLVDSLDQMSLVQQGDVLVTDMTDPDWEPVMKKAAAIVTNRGGRTCHAAIIARELGIPAIVGCGDATRRLSDGAQVTVSCAEGETGYVYAGQLDFAVRRSSVDELPMLPTKVMMNVGNPDRAFDFAQIPNEGVGLARLEFIINKMIGIHPKALLNFDTQSAELQTQILDRIRGYRDPIDFYVSKLTEGIATIAAAFWPKRVIVRMSDFKSNEYSNLLGGSEFEPHEENPMLGFRGASRYISPVFEDCFELETQAIKRVRHEMGLKNVEVMIPFVRTTGEAEAVIDLLAKFGLRRGEQGLKVIMMCELPSNAVLADEFLKFFDGFSIGSNDMTQLTLGLDRDSGDVAHLFDERNPAVKIMLKMAIDAATRAGKYVGICGQGPSDHDDLAQWLMEQGISSVSLNPDTVIDTWLKLGAVSKC	not soluble
MPTLRFRQKVVHKLNNSGIIARPKTVIHPIKMKTTLIAAAEVDRLETWQRYTSNMCHGCHSTCCTLPVEVKIKDLIRIGVVDEFEKDEPPKNVAKRLQKEGIIERFNQKSGIFTLTRMSNDDCMYLDRKSRLCTIYDKRPDTCRNHPKVGPRPGYCAYKPKVVGRLEHHHHHH	not soluble
MPTNTFFHLPEEKQQRLLDAAQIEFSRHSLQEASIANIVKLAGIPRGSFYQYFENKEDLYFYYFATLRKNSERDLEKQIIAENGDLIEAMDVYFSKMIVEVLTGENASFYRNLFVNMDYRASRRVTDNLATGEEEKNRKQHCHKHRGRKGHAAYAEHLYQIIDHSKLTIETPKEFTWFMQTAMHAVFSTIVDGYRQQRENTAYDSTEAVKQLKMKLSWLKNGAYK	not soluble
MPTPPAASSLAAQMGESPAPLYARVKHMIALQIQNGTWPPHHRVPSESELVTQLGFSRMTINRALRELTVEGLLVRMQGVGTFVAEPKSQSALFEVHNIADEIAARGHRHTCKVMVLKEEAAGSERALALDMREGQRVFHSLIVHFENDIPVQIEDRFVNAQVAPDYLKQDFTLQTPYAYLSQVAPLTEGEHVVEAILAEADECKLLQIDAGEPCLLIRRRTWSGRQPVTAARLIHPGSRHRLEGRFTK	not soluble
MPTVLRWTRTMCKRPTCRVRQAWLVLPITGRWPSGGVSMKHACMLDSALPKPSQHSLRRQLNAIKREQFPWMSEVTKNAPQMAIIQLGRAFQNFFAGRAKYPKFRKKGMHDRFTLTNDQFDLEASRIRIPRLGWVRMRETLRFAGKIMLATVSRVAGRWFVSITVDVPDPSHLPQAENQGTVGVDLGVLVLATLSTGETVCGPRPHRALLGRVCRLSRSVLRKVKGSANRHKAKATLANLHARIAAIRLDALHTLTSDLTRRFHTIGIENLNVKGMLRNRHLARSIADIGFFEFRRQLEYKAMMRGGQVVVANRFFASSKRCLTCGHTLNELPLSVRQWACPACGARHDRDVNAAVNLKNMAVSSTVSACGEEGAGPRRKTAVGEAGSQLLEHHHHHH	not soluble
MPVLHNRISNDALKAKMLAESEPRTTISFYKYFHIADPKATRDALYQLFTALNVFGRVYLAHEGINAQISVPASNVETFRAQLYAFDPALEGLRLNIALDDDGKSFWVLRMKVRDRIVADGIDDPHFDASNVGEYLQAAEVNAMLDDPDALFIDMRNHYEYEVGHFENALEIPADTFREQLPKAVEMMQAHKDKKIVMYCTGGIRCEKASAWMKHNGFNKVWHIEGGIIEYARKAREQGLPVRFIGKNFVFDERMGERISDEIIAHCHQCGAPCDSHTNCKNDGCHLLFIQCPVCAEKYKGCCSEICCEESALPPEEQRRRRAGRENGNKIFNKSRGRLNTTLCIPDPTELEHHHHHH	soluble
MPVLNLNDPQAVERYEEFMRQSPYGQVTQDLGWAKVKNNWEPVDVYLEDDQGAIIAAMSMLLGDTPTDKKFAYASKGPVMDVTDVDLLDRLVDEAVKALDGRAYVLRFDPEVAYSDEFNTTLQDHGYVTRNRNVADAGMHATIQPRLNMVLDLTKFPDAKTTLDLYPSKTKSKIKRPFRDGVEVHSGNSATELDEFFKTYTTMAERHGITHRPIEYFQRMQAAFDADTMRIFVAEREGKLLSTGIALKYGRKIWYMYAGSMDGNTYYAPYAVQSEMIQWALDTNTDLYDLGGIESESTDDSLYVFKHVFVKDAPREYIGEIDKVLDPEVYAELVKD	soluble
MPVLSIISCRMFEDELAHIISSDKEMKQLIVVENKDSFGLLRKLRSDNCLPRTSPLDRVPFLLGNGHGSGFMTISKPLLILPFFRKIHEKMKIKAAQELTVVVNLLKLGLHDDIEILRSEVYKNIKEMTSFSDGILLFYCSCGGAFENLEENCLEFDCPLYWFKDGNEEVVVDCISAAIGGNAAYDELMYTCRGTGALYFTSMWASSWKEMREERKKSRNFNENYLKDPRYSRVVKLDTGLSYDPDFHKNVRDFARTFDMEIIEVKGSVELAEKSYRTAKKGVVQHTLKLEHHHHHH	not soluble
MPVSDQLIDQLLADYESPQDLLGEQGILRQLTKKLAERALEAEMELHLGYAKHDAAGFNTGNSRNGKSRKSVRSIHGDIELETPRDRNGSFEPKLIKKGEKQLGGFDERIVSLYARGMSTRDIQAHFEETYGVEVSPTFISQITNAVLDEVKAWQLRPLAPVYPIVYLDCLVVRSRDSGSIQNKSVYLALGVNTDGEKELLGLWIAQTEGAKFWLSVMNELKNRGVEDIFIACVDGLKGFPDAIEAVYPKTQVQLCIVHQIRNSLRFVSWKERKAVAADLKTIYGAATLQQAELALEQFAKTWDKQHPSISKSWRENWTRLSVFFDYPPEIRKVIYTTNAIESLNASLRQVTKTRRSFPSDDAVLKLLYLALHQIAKKWTMPLRDWKPAMTQFMIMYSDRVSL	not soluble
MPYVFLLSPQLEIASQWDGYYEKTFEVSDHVHKEIILKVSGQTVLITGSGSGLGRLMAFEFGKLGARLVLWDINEQGNKETLKELEAMGVEVWTCNIFHIYRFIR	not soluble
MQADPAIRRFAKKRNKRVDRMILDSNYMHTSIDRYFPNESKRRGRPDIIYLLLEMTQESILNHKNQLRTYVHTRNNQVIRISPITRMPKSYNRFIGLFEDLFEKRIITNNGKELLSMEESSLGDLINSIRRDRTILLHPKGEMRKPSEFISNANILIVIGGFSEGDFISDTSFINERYAIFDQELTIWSVANEMVANYERAVGLTLEHHHHHH	soluble
MQAKPQIPKDKSKVAGYIEIPDADIKEPVYPGPATPEQLNRGVSFAEENESLDDQNISIAGHTFIDRPNYQFTNLKAAKKGSMVYFKVGNETRKYKMTSIRDVKPTDVGVLDEQKGKDKQLTLITCDDYNEKTGVWEKRKIFVATEVK	soluble
MQASELTPKWYVAPVSIKDEAVVKNLKAKIQALGFNHEIVDVKVLKEREVHEEVYSLKSGKLPRSLKNTTFNKWFVLDDYRYLRVKISEKNLLGRYIYIKMIYSEDAWRIVRNFPGITGIVGSSGRGALPIPLDEKDANNLEQMLKGISINPSKRIMLTNTAIIEMDSDKFDEKFQYILKQKQAIQKPKEDEDSEIVDAEKLKEAFKKLQNSQEQDEWKEKATIIQSEQTKLDPSVLVPFLGKYEILDTDNKVEQLFEFSVGNLVEVHLTDTIHVQGQIKALYQGTVNKAVVEIELTSKTQLINLPLENLSFVEFE	soluble
MQATIYDLDGNTDGEVDLPDVFETPVRSDLIGKAVRAAQANRKQDYGSDEYAGLRTPAESFGSGRGQAHVPKLDGRARRVPQAVKGRSAHPPKTEKDRSLDLNDKERQLAVRSALAATADADLVADRGHEFDRDEVPVVVSDDFEDLVKTQEVVSLLEALDVHADIDRADETKIKAGQGSARGRKYRRPASILFVTSDEPSTAARNLAGADVATASEVNTEDLAPGGAPGRLTVFTESALAEVAER	soluble
MQCNVCEFGCEIDEYSRGRCRTYVCTGDTIIQDPDMGYLGAYPVSIETIPLLHYYPSGKFLQVFGTGCNFQCSGCVARLLASGKSLSSTTLTPSQVVEKALQQDCLGVVSTLNEPAANYYLFRDLAVQAKEKGLLVGCSTNCYFTEETLNKLGQLVDFMNVGIKGYSDRSYISCGVPSSAPVFRNISLLFDMGVHVETSVVYSRGNEADVIKVAEAVSDISPTIPVQVMRFIPFGDAPIELEPSVGEAESLCADLRKYVDYVYLFNSPGTELLNTYCPECGSLLAEREFYGPMGSRPVRPWITYSCDCGKTVPVKGTTAVERFNEEGFMGGYRISRAFGMVHGVLTCLGILDDSRLIDVWREISDSGTLMKVHHMIQQPYAYLDFVRLIAERANMPEKGEELISFIHTRLELVKSLAAENSGHKVYYCMGSPLFALNAGRMENNLVAFSGGLSINKQLQKEGKPGINVSPSFINENNPDTIFISGFLSRPLDEFYTLCRQYGIETDAVKQQRVYEVPPSWDFGNPRWILGLMYIADKLYPGNSGIDLEKEADEFYRQFYGMPYLEHHHHHH	not soluble

— the DeepSol protein solubility set
